Data: the supplement of paper PMC10567573

B1: FEM1A (parent)
chain: NIVEYLIQEQPGQEQVAGGEAQPG
B2: HMOX1 (parent)
chain: YHIYVALEEEIERNKESPVFAPVY

Variants of: B1
Assay: protein stability index of a GFP-peptide fusion (GPS, HEK-293T) (PSI 1-6); higher = more stable
Conditions: c terminus: a fixed tail appended
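Further: lentivirally expressed fusions sorted by FACS into six bins by GFP to DsRed ratio, PSI derived from sequencing read proportions per bin multiplied by bin number.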

Protein stability index: each site, then its substitutions
Q15: Y 3.67
V16: D 4.16, A 4.52, I 3.86, S 3.86, W 3.81, Q 4.3, Y 4.05, H 4.36, N 3.87, C 4.02, F 3.03, G 4.6, T 4.42, L 3.94, M 4.68, K 4.29, E 4.35, R 4.2, P 4.29
P23: N 4.25, I 3.94, C 3.98, G 4.19, R 3.66, Y 3.59, H 3.98, L 4.24, D 4.66, S 4.46, K 4.29, T 4.14, F 3.66, M 4.33, A 4.93, W 3.03, Q 3.7, E 4.74, V 4.09
G19: L 3.6, A 4.24, I 3.23, T 4.18, D 4.75, C 4.06, F 3.31, K 4.22, Y 3.47, V 3.96, N 4.43, Q 4.09, W 2.99, H 4.04, E 5.05, S 4.65, R 3.66, P 4.16, M 3.72
E20: C 3.68, S 3.41, F 3.46, Q 3.9, L 3.54, R 3.79, W 2.62, N 3.73, A 3.89, V 3.49, H 4.1, D 4.59, G 4.38, I 3.53, M 3.13, P 3.79, T 3.63, K 4.25, Y 2.34
Q22: R 3.94, G 4.33, N 4.22, F 3.24, P 4.02, D 4.56, L 4.16, S 4.53, A 4.1, V 4.35, Y 2.78, M 4.35, H 3.94, E 4.82, I 3.66, T 3.91, K 4.08, W 2.51, C 4.58
A21: L 3.95, N 4.7, P 4.27, G 3.86, E 4.76, R 4.19, V 4.15, C 4.09, D 4.53, F 4.41, W 3.03, T 4.67, Y 4.03, Q 4.05, H 3.77, S 3.83, I 3.91, M 4.16, K 4.28
G18: T 4.2, R 4.15, F 2.94, N 4.16, W 3.12, Q 4.7, E 4.9, K 3.75, I 3.85, D 5.01, H 4.47, S 3.78, V 3.61, P 4.3, C 3.8, Y 3.36, M 4.31, L 3.54, A 4.2
G24: N 4.29, R 3.98, T 4.17, W 2.86, P 4.12, Q 4.37, K 3.94, S 3.86, F 3.76, M 3.86, Y 3.51, I 4.03, E 4.03, L 4.05, C 4.17, H 4.28, D 4.62, V 3.29, A 3.67
A17: D 4.97, W 2.73, C 3.37, I 3.87, G 4.71, H 4.38, R 3.5, E 4.6, F 3.59, P 4.24, N 5.16, T 3.91, K 4.19, L 3.33, M 3.96, V 3.68, Q 4.07, Y 3.68, S 4.72

Variants of: B2
Assay: as above
Conditions: c terminus: a fixed tail appended

Protein stability index, by site and new letter:
Y1: D 4.59, E 4.37, S 2.81, V 1.67, Q 2.78, P 2.46, A 2.6, I 3.18, T 3.71, F 2.03, R 2.73, W 2.59, C 1.89, G 2.26, N 3.93, H 2.5, M 2.35, K 2.57, L 1.64
A6: N 1.59, V 3.22, Q 2.42, W 2.2, D 1.81, H 3.14, E 1.88, S 1.74, M 2, P 1.99, T 1.82, C 1.64, L 2.1, Y 2.62, R 1.7, I 2.02, K 2.42, F 3.88
Y4: A 2.34, I 1.49, H 2.01, K 2.41, S 1.58, L 2.26, T 1.59, Q 2.35, M 1.36, G 1.64, P 1.78, F 4.8, R 1.57, D 2.29, E 2.09, N 2.03
I3: M 1.77, Q 2.27, P 2.06, T 1.92, L 1.92, F 2.91, R 2.43, Y 1.91, N 2.12, S 2.26, D 2.27, G 2.77, K 1.91, V 2.18, H 2.29, E 2.33, C 3.57, A 1.42, W 2.12
E8: F 2.43, Q 3.23, L 2.49, N 1.94, D 1.53, S 3.74, P 2.49, R 2.42, V 2.3, M 4.06, H 2.18, A 2.31, I 2.51, K 2.07, Y 1.05, G 3.48, T 2.19
V5: Y 1.47, L 2.29, S 2.67, M 2.79, F 1.63, T 3.39, W 2.12, H 2.34, Q 3.94, K 3.47, N 3.59, R 3.13, D 4.82, C 1.79, G 2.23, A 3.79, P 2.43, E 4.87, I 1.94
H2: R 2.72, S 2.46, W 1.38, C 1.73, D 3.19, V 2.59, Q 3.32, M 2.17, I 1.51, E 3.12, L 2.17, G 2.57, P 2.62, T 2.18, F 2.25, K 2.61, A 2.34, Y 1.89, N 2.7
E9: A 1.91, N 2.26, F 2.43, L 2.57, Y 1.98, K 2.14, P 2.6, I 1.62, T 1.7, H 1.58, D 1.88, G 2.06, Q 1.75, S 1.87, M 1.72, R 2.02
L7: V 2.93, Y 2.02, A 2.34, W 2.2, E 1.76, T 1.88, D 2.03, N 1.88, P 1.59, C 2.75, R 1.67, K 2.2, I 1.76, H 1.49, Q 2.16, S 1.56, G 2.48, F 1.97, M 1.62
